For assay [1], the target named is T1, human EphA4 (binding to human Ephrin A5) (Homo sapiens, UniProt P54764).
T1 construct: made in house; not restated for the human SEAP-His protein
The assay is described as follows: Human EphA4-human ligand binding inhibition ELISA of humanized antibodies (biotinylated Ephrin A5-Fc). The settings on record: biotinylated human Ephrin A5-Fc 0.7 nM. In a few lines: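 Wells coated with anti-alkaline phosphatase antibody captured human EphA4 extracellular region-SEAP-His at 10 nM. Biotinylated human Ephrin A5-Fc (0.7 nM) and serially diluted humanized antibody (0-3000 nM) were added together for 1 h at room temperature. Bound ligand was detected with HRP-streptavidin and TMBZ at A450.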

In assay [2] the target is T2, human EphA4 (Homo sapiens, UniProt P54764).
T2 construct: made in house; not restated for the human SEAP-His protein
Description: Affinity of humanized antibodies by SPR (Biacore T200). The format is binding. The settings on record: human EphA4 extracellular region-SEAP-His; for ka / kd: 1:1 binding model; for Kd: KD=kd/ka. In a few lines: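 Humanized antibodies captured on protein A chip (antibody A via immobilized rat anti-mouse IgG1) at about 30 to 60 RU in HBS-EP; human EphA4 extracellular region-SEAP-His injected single-cycle at 0.6 to 50 nM, 120 s association, 900 s dissociation. KD = kd/ka from 1:1 binding fits.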

Where “and” joins values, the source holds several entries; their conditions need not be identical. Equal values may be shown once.

T2 sequence (P54764 20-547): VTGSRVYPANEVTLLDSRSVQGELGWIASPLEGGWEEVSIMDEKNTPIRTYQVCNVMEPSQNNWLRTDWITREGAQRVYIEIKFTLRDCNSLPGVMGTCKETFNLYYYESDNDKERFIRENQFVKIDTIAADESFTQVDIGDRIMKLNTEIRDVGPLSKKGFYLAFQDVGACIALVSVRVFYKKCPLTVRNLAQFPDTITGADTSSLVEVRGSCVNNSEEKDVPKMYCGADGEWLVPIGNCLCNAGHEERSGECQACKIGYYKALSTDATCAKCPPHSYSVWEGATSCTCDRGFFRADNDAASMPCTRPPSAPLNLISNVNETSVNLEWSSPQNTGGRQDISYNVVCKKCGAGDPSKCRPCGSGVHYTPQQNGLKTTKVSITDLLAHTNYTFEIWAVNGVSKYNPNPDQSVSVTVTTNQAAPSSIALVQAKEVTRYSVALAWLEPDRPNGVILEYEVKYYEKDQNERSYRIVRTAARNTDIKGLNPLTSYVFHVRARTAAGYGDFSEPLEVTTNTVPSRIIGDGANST
T1 sequence (P54764 20-547): as above

B1: 155 (antibody, V domains shown)
VH: QIQLVQSGSELKKPGASVKVSCKASGYTFTDYSMHWVRQAPGQGLKWMGWINTETGEPTYADDFKGRFVFSLDTSVSTAYLQISSLKAEDTAVYYCARIPLYYYGSRYWYFDVWGQGTTVTVSS
VL: DIQMTQSPSSLSASVGDRVTITCRASENIYRNLAWYQQKPGKAPKLLLYAATNLADGVPSRFSGSGSGTDYTLTISSLQSEDFATYYCQHFWGTPWTFGQGTKVEIK
modifications: synthetic humanized antibody heavy chain variable region sequence; synthetic humanized antibody light chain variable region sequence
With B1, the IC50 (as a rule, the point on the concentration scale where inhibition reaches its midpoint) in assay [1] was 2.4 nM. In assay [2], the ka turned out to be 330000 M⁻¹ s⁻¹; the kd turned out to be 0.00064 s⁻¹; the Kd – broadly, a measure of binding affinity in units of concentration – turned out to be 1.9 nM.

B2: 132 (antibody, V domains shown)
VH: QIQLVQSGSELKKPGASVKVSCKASGYTFTDYSMHWVRQAPGQGLKWMGWINTETGEPTYAQGFTGRFVFSLDTSVSTAYLQISSLKAEDTAVYYCARIPLYYYGSRYWYFDVWGQGTTVTVSS
VL: EIVMTQSPATLSVSPGERATLSCRASENIYRNLAWYQQKPGQSPRLLIYAATNLADGIPARFSGSGSGTEYTLTISSLQSEDFAVYYCQHFWGTPWTFGQGTKVEIK
modifications: synthetic humanized antibody heavy chain variable region sequence; synthetic humanized antibody light chain variable region sequence
B2 yielded an IC50 in assay [1] of 3.1 nM. In assay [2], this molecule registered a ka of 270000 M⁻¹ s⁻¹, a kd of 0.00031 s⁻¹ and a Kd of 1.2 nM.

B3: 135 (antibody, V domains shown)
VH: QVQLVQSGSELKKPGASVKVSCKASGYTFTDYSMHWVRQAPGQGLEWMGWINTETGEPTYADDFKGRFVFSLDTSVSTAYLQISSLKAEDTAVYYCARIPLYYYGSRYWYFDVWGQGTTVTVSS
VL: EIVMTQSPATLSVSPGERATLSCRASENIYRNLAWYQQKPGQSPRLLIYAATNLADGIPARFSGSGSGTEYTLTISSLQSEDFAVYYCQHFWGTPWTFGQGTKVEIK
modifications: synthetic humanized antibody heavy chain variable region sequence; synthetic humanized antibody light chain variable region sequence
Molecule B3 registered an IC50 in assay [1] of 2.5 nM. In assay [2], this molecule gave a ka of 320000 M⁻¹ s⁻¹, a kd of 0.0004 s⁻¹ and a Kd of 1.3 nM.

B4: 157 (antibody, V domains shown)
VH: QVQLVQSGSELKKPGASVKVSCKASGYTFTDYSMHWVRQAPGQGLEWMGWINTETGEPTYAQGFTGRFVFSLDTSVSTAYLQISSLKAEDTAVYYCARIPLYYYGSRYWYFDVWGQGTTVTVSS
VL: DIQMTQSPSSLSASVGDRVTITCRASENIYRNLAWYQQKPGKAPQLLLYAATNLADGVPSRFSGSGSGTDYTLTISSLQPEDFATYYCQHFWGTPWTFGQGTKVEIK
modifications: synthetic humanized antibody heavy chain variable region sequence; synthetic humanized antibody light chain variable region sequence
In the case of B4, the IC50 in assay [1] was determined as 2.6 nM. In addition, in assay [2], the ka amounted to 350000 M⁻¹ s⁻¹, the kd amounted to 0.00068 s⁻¹ and binding was put at a Kd of 2 nM.

B5: 133 (antibody, V domains shown)
VH: QVQLVQSGSELKKPGASVKVSCKASGYTFTDYSMHWVRQAPGQGLEWMGWINTETGEPTYAQGFTGRFVFSLDTSVSTAYLQISSLKAEDTAVYYCARIPLYYYGSRYWYFDVWGQGTTVTVSS
VL: EIVMTQSPATLSVSPGERATLSCRASENIYRNLAWYQQKPGQSPRLLIYAATNLADGIPARFSGSGSGTEYTLTISSLQSEDFAVYYCQHFWGTPWTFGQGTKVEIK
modifications: synthetic humanized antibody heavy chain variable region sequence; synthetic humanized antibody light chain variable region sequence
As for B5, in assay [1], the IC50 amounted to 3 nM. In assay [2], this molecule came in with a ka of 300000 M⁻¹ s⁻¹, a kd of 0.00032 s⁻¹ and a Kd of 1.1 nM.

B6: 158 (antibody, V domains shown)
VH: QVQLVQSGSELKKPGASVKVSCKASGYTFTDYSMHWVRQAPGQGLKWMGWINTETGEPTYAQGFTGRFVFSLDTSVSTAYLQISSLKAEDTAVYYCARIPLYYYGSRYWYFDVWGQGTTVTVSS
VL: DIQMTQSPSSLSASVGDRVTITCRASENIYRNLAWYQQKPGKAPQLLLYAATNLADGVPSRFSGSGSGTDYTLTISSLQPEDFATYYCQHFWGTPWTFGQGTKVEIK
modifications: synthetic humanized antibody heavy chain variable region sequence; synthetic humanized antibody light chain variable region sequence
In assay [1], B6 returned an IC50 of 2.8 nM. Moreover, in assay [2], the ka is 310000 M⁻¹ s⁻¹; the kd is 0.00061 s⁻¹ and 0.00056 s⁻¹; the Kd is 1.9 nM and 1.6 nM.

B7: 144 (antibody, V domains shown)
VH: QVQLVQSGSELKKPGASVKVSCKASGYTFTDYSMHWVRQAPGQGLEWMGWINTETGEPTYADDFKGRFVFSLDTSVSTAYLQISSLKAEDTAVYYCARIPLYYYGSRYWYFDVWGQGTTVTVSS
VL: DIQMTQSPSSLSASVGDRVTITCRASENIYRNLAWYQQKPGKAPQLLLYAATNLADGVPSRFSGSGSGTDYTLTISSLQPEDFATYYCQHFWGTPWTFGQGTKVEIK
modifications: synthetic humanized antibody heavy chain variable region sequence; synthetic humanized antibody light chain variable region sequence
On to B7, for which, in assay [1], the IC50 is 3.6 nM. In assay [2], the ka was 400000 M⁻¹ s⁻¹, the kd stood at 0.00078 s⁻¹ and binding was characterised by a dissociation constant (Kd) of 2 nM.

B8: 75 (antibody)
VH: QVQLVQSGSELKKPGASVKVSCKASGYTFTDYSMHWVRQAPGQGLEWMGWINTETGEPTYAQGFTGRFVFSLDTSVSTAYLQISSLKAEDTAVYYCARIPLYYYGSRYWYFDVWGQGTTVTVSS
VL: DIQMTQSPSSLSASVGDRVTITCRASENIYRNLAWYQQKPGKAPKLLVYAATNLADGVPSRFSGSGSGTDYTLTISSLQPEDFATYYCQHFWGTPWTFGQGTKVEIK
chain: ASTKGPSVFPLAPSSKSTSGGTAALGCLVKDYFPEPVTVSWNSGALTSGVHTFPAVLQSSGLYSLSSVVTVPSSSLGTQTYICNVNHKPSNTKVDKRVEPKSCDKTHTCPPCPAPPAAAPSVFLFPPKPKDTLMISRTPEVTCVVVDVSHEDPEVQFNWYVDGVEVHNAKTKPREEQFNSTFRVVSVLTVVHQDWLNGKEYKCKVSNKGLPAPIEKTISKTKGQPREPQVYTLPPSREEMTKNQVSLTCLVKGFYPSDIAVEWESNGQPENNYKTTPPMLDSDGSFFLYSKLTVDKSRWQQGNVFSCSVMHEALHNHYTQKSLSLSPG
modifications: synthetic humanized antibody heavy chain variable region sequence; synthetic humanized antibody light chain variable region sequence; synthetic antibody constant region sequence
Consider B8, for which the IC50 in assay [1] came to 2.9 nM. In assay [2], this molecule registered a ka of 380000 M⁻¹ s⁻¹, a kd of 0.00042 s⁻¹ and a Kd of 1.2 nM.

B9: 160 (antibody, V domains shown)
VH: QIQLVQSGSELKKPGASVKVSCKASGYTFTDYSMHWVRQAPGQGLKWMGWINTETGEPTYADDFKGRFVFSLDTSVSTAYLQISSLKAEDTAVYYCARIPLYYYGSRYWYFDVWGQGTTVTVSS
VL: DIQMTQSPSSLSASVGDRVTITCRASENIYRNLAWYQQKPGKAPQLLLYAATNLADGVPSRFSGSGSGTDYTLTISSLQPEDFATYYCQHFWGTPWTFGQGTKVEIK
modifications: synthetic humanized antibody heavy chain variable region sequence; synthetic humanized antibody light chain variable region sequence
B9: the IC50 in assay [1] came out at 2.2 nM. In assay [2], this molecule yielded a ka of 320000 M⁻¹ s⁻¹, a kd of 0.00061 s⁻¹ and a Kd of 1.9 nM.

B10: 159 (antibody, V domains shown)
VH: QVQLVQSGSELKKPGASVKVSCKASGYTFTDYSMHWVRQAPGQGLKWMGWINTETGEPTYADDFKGRFVFSLDTSVSTAYLQISSLKAEDTAVYYCARIPLYYYGSRYWYFDVWGQGTTVTVSS
VL: DIQMTQSPSSLSASVGDRVTITCRASENIYRNLAWYQQKPGKAPQLLLYAATNLADGVPSRFSGSGSGTDYTLTISSLQPEDFATYYCQHFWGTPWTFGQGTKVEIK
modifications: synthetic humanized antibody heavy chain variable region sequence; synthetic humanized antibody light chain variable region sequence
In assay [1], B10 came in with a half-inhibitory concentration (IC50) of 2.6 nM. Moreover, in assay [2], the ka was found to be 310000 M⁻¹ s⁻¹, the kd came to 0.00061 s⁻¹ and binding was characterised by a dissociation constant (Kd) of 2 nM.

B11: 134 (antibody, V domains shown)
VH: QVQLVQSGSELKKPGASVKVSCKASGYTFTDYSMHWVRQAPGQGLKWMGWINTETGEPTYAQGFTGRFVFSLDTSVSTAYLQISSLKAEDTAVYYCARIPLYYYGSRYWYFDVWGQGTTVTVSS
VL: EIVMTQSPATLSVSPGERATLSCRASENIYRNLAWYQQKPGQSPRLLIYAATNLADGIPARFSGSGSGTEYTLTISSLQSEDFAVYYCQHFWGTPWTFGQGTKVEIK
modifications: synthetic humanized antibody heavy chain variable region sequence; synthetic humanized antibody light chain variable region sequence
In the case of B11, the IC50 in assay [1] was 3 nM. In assay [2], this molecule had a ka of 280000 M⁻¹ s⁻¹, a kd of 0.00032 s⁻¹ and a Kd of 1.2 nM.

The values are drawn from US10428140B2, “Anti-EphA4 antibody” (EISAI R&D MANAGEMENT CO., LTD., priority 2015, dated 2019).
